The results in this text go back to the supplement of paper PMC9112550, “Optimization of the antimicrobial peptide Bac7 by deep mutational scanning” (BMC Biology, 2022).

The series deals with Escherichia coli TOP10. Put plainly: shrunken log2 fold change of peptide-encoding DNA abundance (4.5 h post-induction vs induction); higher = less antimicrobial activity (less host growth inhibition). To be noted: time post-induction: 4.5 h; library: site-saturation at positions 5, 18, 19, 20.
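Note: peptides expressed intracellularly from a pBAD plasmid library in pooled LB shake-flask culture, induced with 0.3% L-arabinose, DNA abundance read by NGS, three biological replicates, DESeq2 with apeglm shrinkage.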

Take RRIRCRPPRLPRPRPRPRNKPRP: the “shrunken log2 fold change” value is -0.102.

As to RRIRGRPPRLPRPRPRPCNLPRP, the “shrunken log2 fold change” value is -0.0958.

As for RRIRGRPPRLPRPRPRPTHVPRP, the “shrunken log2 fold change” value was found to be 0.483.

Consider RRIRARPPRLPRPRPRPFQGPRP, for which the “shrunken log2 fold change” value amounted to 0.0242.

Consider RRIRWRPPRLPRPRPRPIRPPRP, for which the “shrunken log2 fold change” value is -0.116.

For the sequence RRIRQRPPRLPRPRPRPNVIPRP, the “shrunken log2 fold change” value is -0.0189.

Consider RRIRGRPPRLPRPRPRPRSEPRP, for which the “shrunken log2 fold change” value came out at 0.29.

As for RRIRPRPPRLPRPRPRPINHPRP, the “shrunken log2 fold change” value is -0.619.

Turning to RRIRHRPPRLPRPRPRPETPPRP, the “shrunken log2 fold change” value was 0.561.

Take RRIRHRPPRLPRPRPRPFCYPRP: the “shrunken log2 fold change” value is -0.286.

Consider RRIRNRPPRLPRPRPRPGGQPRP, for which the “shrunken log2 fold change” value amounted to 0.0599.

RRIRCRPPRLPRPRPRPWATPRP: the “shrunken log2 fold change” value was determined as 0.00822.

On to RRIRLRPPRLPRPRPRPGTIPRP, for which the “shrunken log2 fold change” value was -0.689.

In the case of RRIRVRPPRLPRPRPRPCMLPRP, the “shrunken log2 fold change” value is -0.606.

Turning to RRIRWRPPRLPRPRPRPWLVPRP, the “shrunken log2 fold change” value is -0.237.

Consider RRIRMRPPRLPRPRPRPQMCPRP, for which the “shrunken log2 fold change” value is -0.239.

Regarding RRIRIRPPRLPRPRPRPKVYPRP, the “shrunken log2 fold change” value is -0.394.

For RRIRYRPPRLPRPRPRPIHWPRP, the “shrunken log2 fold change” value is -0.182.

For RRIRWRPPRLPRPRPRPGLDPRP, the “shrunken log2 fold change” value was 0.601.

As for RRIRQRPPRLPRPRPRPILLPRP, the “shrunken log2 fold change” value is -0.0814.

With RRIRCRPPRLPRPRPRPWIHPRP, the “shrunken log2 fold change” value was -0.277.

On to RRIRQRPPRLPRPRPRPTTPPRP, for which the “shrunken log2 fold change” value was found to be 0.402.

For the sequence RRIRWRPPRLPRPRPRPGAMPRP, the “shrunken log2 fold change” value is 0.524.

Regarding RRIRCRPPRLPRPRPRPADSPRP, the “shrunken log2 fold change” value was -0.0251.

For the sequence RRIRNRPPRLPRPRPRPYGKPRP, the “shrunken log2 fold change” value is -0.0718.

RRIRTRPPRLPRPRPRPRVCPRP: the “shrunken log2 fold change” value turned out to be 0.369.

RRIRLRPPRLPRPRPRPMCEPRP: the “shrunken log2 fold change” value is -0.0027.

As for RRIRQRPPRLPRPRPRPFYMPRP, the “shrunken log2 fold change” value was -1.52.

On to RRIRVRPPRLPRPRPRPMSDPRP, for which the “shrunken log2 fold change” value is 0.032.

Consider RRIRGRPPRLPRPRPRPGEYPRP, for which the “shrunken log2 fold change” value came to 0.3.

In the case of RRIRWRPPRLPRPRPRPLHTPRP, the “shrunken log2 fold change” value was 0.0467.

RRIRKRPPRLPRPRPRPRESPRP: the “shrunken log2 fold change” value is 0.159.

On to RRIRHRPPRLPRPRPRPMLAPRP, for which the “shrunken log2 fold change” value was -0.144.

In the case of RRIRARPPRLPRPRPRPLLIPRP, the “shrunken log2 fold change” value is -0.0375.

With RRIRPRPPRLPRPRPRPTGFPRP, the “shrunken log2 fold change” value was determined as 0.0273.

Take RRIRERPPRLPRPRPRPNIMPRP: the “shrunken log2 fold change” value is -0.444.

In the case of RRIRCRPPRLPRPRPRPLTDPRP, the “shrunken log2 fold change” value is -0.285.

On to RRIRYRPPRLPRPRPRPDCQPRP, for which the “shrunken log2 fold change” value was -0.0127.

For the sequence RRIRFRPPRLPRPRPRPPSAPRP, the “shrunken log2 fold change” value came out at 0.703.

Regarding RRIRLRPPRLPRPRPRPAAWPRP, the “shrunken log2 fold change” value was 0.32.

With RRIRERPPRLPRPRPRPQVCPRP, the “shrunken log2 fold change” value was -0.245.

With RRIRFRPPRLPRPRPRPHPDPRP, the “shrunken log2 fold change” value is -0.262.

RRIRCRPPRLPRPRPRPGVGPRP: the “shrunken log2 fold change” value was determined as 0.455.

For the sequence RRIRVRPPRLPRPRPRPPVGPRP, the “shrunken log2 fold change” value came out at 0.375.

For RRIRMRPPRLPRPRPRPWGTPRP, the “shrunken log2 fold change” value was 0.254.

Take RRIRKRPPRLPRPRPRPISIPRP: the “shrunken log2 fold change” value came out at 0.0294.

In the case of RRIRPRPPRLPRPRPRPSVSPRP, the “shrunken log2 fold change” value is -0.504.

For the sequence RRIRPRPPRLPRPRPRPGTSPRP, the “shrunken log2 fold change” value was -0.0162.

Turning to RRIRKRPPRLPRPRPRPAAYPRP, the “shrunken log2 fold change” value stood at 0.361.

For RRIRYRPPRLPRPRPRPAPQPRP, the “shrunken log2 fold change” value was found to be 0.416.

In the case of RRIRVRPPRLPRPRPRPIHAPRP, the “shrunken log2 fold change” value came out at 0.098.

RRIRCRPPRLPRPRPRPDTVPRP: the “shrunken log2 fold change” value was -0.369.

For RRIRIRPPRLPRPRPRPSVIPRP, the “shrunken log2 fold change” value was -0.661.

With RRIRTRPPRLPRPRPRPRKWPRP, the “shrunken log2 fold change” value was determined as 0.215.

On to RRIRDRPPRLPRPRPRPFVEPRP, for which the “shrunken log2 fold change” value is -0.0362.

In the case of RRIRIRPPRLPRPRPRPWYSPRP, the “shrunken log2 fold change” value is -0.821.

In the case of RRIRYRPPRLPRPRPRPGCNPRP, the “shrunken log2 fold change” value is -0.172.

As for RRIRTRPPRLPRPRPRPCYSPRP, the “shrunken log2 fold change” value was -0.0481.

For RRIRARPPRLPRPRPRPGNSPRP, the “shrunken log2 fold change” value is -0.108.

Turning to RRIRFRPPRLPRPRPRPYAVPRP, the “shrunken log2 fold change” value was -0.419.

In the case of RRIRARPPRLPRPRPRPRFNPRP, the “shrunken log2 fold change” value stood at 0.269.

Regarding RRIRLRPPRLPRPRPRPACYPRP, the “shrunken log2 fold change” value is -0.202.

For RRIRYRPPRLPRPRPRPSGCPRP, the “shrunken log2 fold change” value is -0.264.

For the sequence RRIRRRPPRLPRPRPRPSQMPRP, the “shrunken log2 fold change” value came to 0.0447.

Consider RRIRWRPPRLPRPRPRPWPWPRP, for which the “shrunken log2 fold change” value is -0.0737.

Regarding RRIRDRPPRLPRPRPRPQEHPRP, the “shrunken log2 fold change” value was -0.0802.

As to RRIRRRPPRLPRPRPRPYWEPRP, the “shrunken log2 fold change” value was 0.0331.

Regarding RRIRDRPPRLPRPRPRPDLLPRP, the “shrunken log2 fold change” value turned out to be 0.106.

As to RRIRARPPRLPRPRPRPISPPRP, the “shrunken log2 fold change” value is -0.141.

In the case of RRIRTRPPRLPRPRPRPSIGPRP, the “shrunken log2 fold change” value was -0.272.

For RRIRNRPPRLPRPRPRPRFQPRP, the “shrunken log2 fold change” value turned out to be 0.0932.

Regarding RRIRERPPRLPRPRPRPCGAPRP, the “shrunken log2 fold change” value was 0.469.

In the case of RRIRLRPPRLPRPRPRPWAMPRP, the “shrunken log2 fold change” value was -0.0431.

RRIRVRPPRLPRPRPRPIKIPRP: the “shrunken log2 fold change” value was -0.251.

Consider RRIRTRPPRLPRPRPRPLQMPRP, for which the “shrunken log2 fold change” value is 0.2.

As for RRIRCRPPRLPRPRPRPDCSPRP, the “shrunken log2 fold change” value worked out at 0.072.

Regarding RRIRARPPRLPRPRPRPFCFPRP, the “shrunken log2 fold change” value came out at 0.42.

Consider RRIRRRPPRLPRPRPRPFINPRP, for which the “shrunken log2 fold change” value is -0.211.

Turning to RRIRPRPPRLPRPRPRPKWPPRP, the “shrunken log2 fold change” value is -0.0466.

With RRIRARPPRLPRPRPRPLESPRP, the “shrunken log2 fold change” value is 0.486.

As for RRIRERPPRLPRPRPRPITCPRP, the “shrunken log2 fold change” value amounted to 0.0303.

RRIRMRPPRLPRPRPRPHRWPRP: the “shrunken log2 fold change” value came to 0.478.

Regarding RRIRLRPPRLPRPRPRPWYPPRP, the “shrunken log2 fold change” value was -0.242.

Consider RRIRHRPPRLPRPRPRPWWMPRP, for which the “shrunken log2 fold change” value turned out to be 0.0619.

In the case of RRIRTRPPRLPRPRPRPAMWPRP, the “shrunken log2 fold change” value is 0.35.

For the sequence RRIRTRPPRLPRPRPRPKAIPRP, the “shrunken log2 fold change” value is 0.00211.

Regarding RRIRSRPPRLPRPRPRPRAGPRP, the “shrunken log2 fold change” value was 1.46.

Take RRIRYRPPRLPRPRPRPILLPRP: the “shrunken log2 fold change” value is -0.322.

For RRIRGRPPRLPRPRPRPYHYPRP, the “shrunken log2 fold change” value is -0.149.

For the sequence RRIRHRPPRLPRPRPRPHDAPRP, the “shrunken log2 fold change” value is -0.357.

On to RRIRVRPPRLPRPRPRPRYIPRP, for which the “shrunken log2 fold change” value was -0.458.

Take RRIRSRPPRLPRPRPRPTFAPRP: the “shrunken log2 fold change” value is 0.232.

On to RRIRRRPPRLPRPRPRPRYVPRP, for which the “shrunken log2 fold change” value turned out to be 0.147.

In the case of RRIRSRPPRLPRPRPRPKVYPRP, the “shrunken log2 fold change” value came out at 0.226.

Take RRIRARPPRLPRPRPRPTHAPRP: the “shrunken log2 fold change” value worked out at 0.528.

On to RRIRPRPPRLPRPRPRPIDPPRP, for which the “shrunken log2 fold change” value is -0.172.

With RRIRYRPPRLPRPRPRPEGLPRP, the “shrunken log2 fold change” value is -0.0136.

Take RRIRDRPPRLPRPRPRPINSPRP: the “shrunken log2 fold change” value was -0.292.

Consider RRIRYRPPRLPRPRPRPLNCPRP, for which the “shrunken log2 fold change” value was -0.295.

Take RRIRNRPPRLPRPRPRPDFAPRP: the “shrunken log2 fold change” value is -0.0617.

As for RRIRARPPRLPRPRPRPNLRPRP, the “shrunken log2 fold change” value worked out at 0.022.

On to RRIRSRPPRLPRPRPRPNWGPRP, for which the “shrunken log2 fold change” value is -0.0911.

As to RRIRQRPPRLPRPRPRPGPYPRP, the “shrunken log2 fold change” value is -0.0528.

Regarding RRIRLRPPRLPRPRPRPNHRPRP, the “shrunken log2 fold change” value was 0.00288.

On to RRIRLRPPRLPRPRPRPQGIPRP, for which the “shrunken log2 fold change” value is -0.0354.

With RRIRQRPPRLPRPRPRPVRLPRP, the “shrunken log2 fold change” value is -0.0825.

Consider RRIRMRPPRLPRPRPRPVMLPRP, for which the “shrunken log2 fold change” value is -0.28.

As to RRIRARPPRLPRPRPRPAQCPRP, the “shrunken log2 fold change” value amounted to 0.469.

As to RRIRFRPPRLPRPRPRPILFPRP, the “shrunken log2 fold change” value was -0.0517.

For RRIRRRPPRLPRPRPRPPVRPRP, the “shrunken log2 fold change” value came to 0.437.

Regarding RRIRMRPPRLPRPRPRPPKRPRP, the “shrunken log2 fold change” value is 1.05.

Turning to RRIRKRPPRLPRPRPRPGEIPRP, the “shrunken log2 fold change” value came out at 0.0945.

Take RRIRDRPPRLPRPRPRPCQCPRP: the “shrunken log2 fold change” value is -0.017.

RRIRNRPPRLPRPRPRPIHDPRP: the “shrunken log2 fold change” value stood at 0.177.

In the case of RRIRVRPPRLPRPRPRPLDWPRP, the “shrunken log2 fold change” value came to 0.188.

In the case of RRIRARPPRLPRPRPRPMAHPRP, the “shrunken log2 fold change” value turned out to be 0.733.

Turning to RRIRLRPPRLPRPRPRPNHTPRP, the “shrunken log2 fold change” value was -0.33.

Regarding RRIRVRPPRLPRPRPRPFVDPRP, the “shrunken log2 fold change” value is -0.385.

Take RRIRQRPPRLPRPRPRPTWCPRP: the “shrunken log2 fold change” value was 0.171.

For RRIRCRPPRLPRPRPRPPQDPRP, the “shrunken log2 fold change” value stood at 1.08.

Regarding RRIRTRPPRLPRPRPRPMHTPRP, the “shrunken log2 fold change” value was determined as 0.0134.

On to RRIRERPPRLPRPRPRPGKDPRP, for which the “shrunken log2 fold change” value is -0.24.

Regarding RRIRARPPRLPRPRPRPAWAPRP, the “shrunken log2 fold change” value was 0.48.

As for RRIRSRPPRLPRPRPRPHEYPRP, the “shrunken log2 fold change” value was determined as 0.00184.

On to RRIRMRPPRLPRPRPRPVKTPRP, for which the “shrunken log2 fold change” value came to 0.0113.
